According to US20150344540A1, “NOVEL GLP-1 RECEPTOR AGONISTS WITH CHOLESTEROL EFFLUX ACTIVITY” (NOVO NORDISK A/S, priority 2012, published 2015):
Where no end group is shown, it is not given here. [ ]: non-standard residue; d: D form. Aib = CC(C)(N)C(=O)O

B1: [Aib8,Glu23,Val25,Glu34,Lys35,Val36,Lys37]-GLP-1-(7-37)-peptidyl-Glu-Leu-Leu amide (peptide)
peptide: H[Aib]EGTFTSDVSSYLEGEAVKEFIAWLVEKVKELL-NH2
modifications: N-terminus assumed
SMILES: CC[C@H](C)[C@H](NC(=O)[C@H](Cc1ccccc1)NC(=O)[C@H](CCC(=O)O)NC(=O)[C@H](CCCCN)NC(=O)[C@@H](NC(=O)[C@H](C)NC(=O)[C@H](CCC(=O)O)NC(=O)CNC(=O)[C@H](CCC(=O)O)NC(=O)[C@H](CC(C)C)NC(=O)[C@H](Cc1ccc(O)cc1)NC(=O)[C@H](CO)NC(=O)[C@H](CO)NC(=O)[C@@H](NC(=O)[C@H](CC(=O)O)NC(=O)[C@H](CO)NC(=O)[C@@H](NC(=O)[C@H](Cc1ccccc1)NC(=O)[C@@H](NC(=O)CNC(=O)[C@H](CCC(=O)O)NC(=O)C(C)(C)NC(=O)[C@@H](N)Cc1c[nH]cn1)[C@@H](C)O)[C@@H](C)O)C(C)C)C(C)C)C(=O)N[C@@H](C)C(=O)N[C@@H](Cc1c[nH]c2ccccc12)C(=O)N[C@@H](CC(C)C)C(=O)N[C@H](C(=O)N[C@@H](CCC(=O)O)C(=O)N[C@@H](CCCCN)C(=O)N[C@H](C(=O)N[C@@H](CCCCN)C(=O)N[C@@H](CCC(=O)O)C(=O)N[C@@H](CC(C)C)C(=O)N[C@@H](CC(C)C)C(N)=O)C(C)C)C(C)C
B2: [Aib8,Glu23,Val25,Glu34,Lys35,Val36,Lys37]-GLP-1-(7-37)-peptidyl-Glu-Lys-Leu amide (peptide)
peptide: H[Aib]EGTFTSDVSSYLEGEAVKEFIAWLVEKVKEKL-NH2
modifications: N-terminus assumed
SMILES: CC[C@H](C)[C@H](NC(=O)[C@H](Cc1ccccc1)NC(=O)[C@H](CCC(=O)O)NC(=O)[C@H](CCCCN)NC(=O)[C@@H](NC(=O)[C@H](C)NC(=O)[C@H](CCC(=O)O)NC(=O)CNC(=O)[C@H](CCC(=O)O)NC(=O)[C@H](CC(C)C)NC(=O)[C@H](Cc1ccc(O)cc1)NC(=O)[C@H](CO)NC(=O)[C@H](CO)NC(=O)[C@@H](NC(=O)[C@H](CC(=O)O)NC(=O)[C@H](CO)NC(=O)[C@@H](NC(=O)[C@H](Cc1ccccc1)NC(=O)[C@@H](NC(=O)CNC(=O)[C@H](CCC(=O)O)NC(=O)C(C)(C)NC(=O)[C@@H](N)Cc1c[nH]cn1)[C@@H](C)O)[C@@H](C)O)C(C)C)C(C)C)C(=O)N[C@@H](C)C(=O)N[C@@H](Cc1c[nH]c2ccccc12)C(=O)N[C@@H](CC(C)C)C(=O)N[C@H](C(=O)N[C@@H](CCC(=O)O)C(=O)N[C@@H](CCCCN)C(=O)N[C@H](C(=O)N[C@@H](CCCCN)C(=O)N[C@@H](CCC(=O)O)C(=O)N[C@@H](CCCCN)C(=O)N[C@@H](CC(C)C)C(N)=O)C(C)C)C(C)C
B3: [Aib8,Glu23,Val25,Glu34,Lys35,Val36,Lys37]-GLP-1-(7-37)-peptidyl-Glu-Glu-Leu amide (peptide)
peptide: H[Aib]EGTFTSDVSSYLEGEAVKEFIAWLVEKVKEEL-NH2
modifications: N-terminus assumed
SMILES: CC[C@H](C)[C@H](NC(=O)[C@H](Cc1ccccc1)NC(=O)[C@H](CCC(=O)O)NC(=O)[C@H](CCCCN)NC(=O)[C@@H](NC(=O)[C@H](C)NC(=O)[C@H](CCC(=O)O)NC(=O)CNC(=O)[C@H](CCC(=O)O)NC(=O)[C@H](CC(C)C)NC(=O)[C@H](Cc1ccc(O)cc1)NC(=O)[C@H](CO)NC(=O)[C@H](CO)NC(=O)[C@@H](NC(=O)[C@H](CC(=O)O)NC(=O)[C@H](CO)NC(=O)[C@@H](NC(=O)[C@H](Cc1ccccc1)NC(=O)[C@@H](NC(=O)CNC(=O)[C@H](CCC(=O)O)NC(=O)C(C)(C)NC(=O)[C@@H](N)Cc1c[nH]cn1)[C@@H](C)O)[C@@H](C)O)C(C)C)C(C)C)C(=O)N[C@@H](C)C(=O)N[C@@H](Cc1c[nH]c2ccccc12)C(=O)N[C@@H](CC(C)C)C(=O)N[C@H](C(=O)N[C@@H](CCC(=O)O)C(=O)N[C@@H](CCCCN)C(=O)N[C@H](C(=O)N[C@@H](CCCCN)C(=O)N[C@@H](CCC(=O)O)C(=O)N[C@@H](CCC(=O)O)C(=O)N[C@@H](CC(C)C)C(N)=O)C(C)C)C(C)C
B4: [Aib8,Glu23,Val25,Lys35,Aib36,Lys37]-GLP-1-(7-37)-peptidyl-Glu-Phe-Leu amide (peptide)
peptide: H[Aib]EGTFTSDVSSYLEGEAVKEFIAWLVKK[Aib]KEFL-NH2
modifications: N-terminus assumed
SMILES: CC[C@H](C)[C@H](NC(=O)[C@H](Cc1ccccc1)NC(=O)[C@H](CCC(=O)O)NC(=O)[C@H](CCCCN)NC(=O)[C@@H](NC(=O)[C@H](C)NC(=O)[C@H](CCC(=O)O)NC(=O)CNC(=O)[C@H](CCC(=O)O)NC(=O)[C@H](CC(C)C)NC(=O)[C@H](Cc1ccc(O)cc1)NC(=O)[C@H](CO)NC(=O)[C@H](CO)NC(=O)[C@@H](NC(=O)[C@H](CC(=O)O)NC(=O)[C@H](CO)NC(=O)[C@@H](NC(=O)[C@H](Cc1ccccc1)NC(=O)[C@@H](NC(=O)CNC(=O)[C@H](CCC(=O)O)NC(=O)C(C)(C)NC(=O)[C@@H](N)Cc1c[nH]cn1)[C@@H](C)O)[C@@H](C)O)C(C)C)C(C)C)C(=O)N[C@@H](C)C(=O)N[C@@H](Cc1c[nH]c2ccccc12)C(=O)N[C@@H](CC(C)C)C(=O)N[C@H](C(=O)N[C@@H](CCCCN)C(=O)N[C@@H](CCCCN)C(=O)NC(C)(C)C(=O)N[C@@H](CCCCN)C(=O)N[C@@H](CCC(=O)O)C(=O)N[C@@H](Cc1ccccc1)C(=O)N[C@@H](CC(C)C)C(N)=O)C(C)C
B5: [Aib8,Glu23,Val25,Glu34,Lys35,Val36,Lys37]-GLP-1-(7-37)-peptidyl-Glu-Gly-Leu amide (peptide)
peptide: H[Aib]EGTFTSDVSSYLEGEAVKEFIAWLVEKVKEGL-NH2
modifications: N-terminus assumed
SMILES: CC[C@H](C)[C@H](NC(=O)[C@H](Cc1ccccc1)NC(=O)[C@H](CCC(=O)O)NC(=O)[C@H](CCCCN)NC(=O)[C@@H](NC(=O)[C@H](C)NC(=O)[C@H](CCC(=O)O)NC(=O)CNC(=O)[C@H](CCC(=O)O)NC(=O)[C@H](CC(C)C)NC(=O)[C@H](Cc1ccc(O)cc1)NC(=O)[C@H](CO)NC(=O)[C@H](CO)NC(=O)[C@@H](NC(=O)[C@H](CC(=O)O)NC(=O)[C@H](CO)NC(=O)[C@@H](NC(=O)[C@H](Cc1ccccc1)NC(=O)[C@@H](NC(=O)CNC(=O)[C@H](CCC(=O)O)NC(=O)C(C)(C)NC(=O)[C@@H](N)Cc1c[nH]cn1)[C@@H](C)O)[C@@H](C)O)C(C)C)C(C)C)C(=O)N[C@@H](C)C(=O)N[C@@H](Cc1c[nH]c2ccccc12)C(=O)N[C@@H](CC(C)C)C(=O)N[C@H](C(=O)N[C@@H](CCC(=O)O)C(=O)N[C@@H](CCCCN)C(=O)N[C@H](C(=O)N[C@@H](CCCCN)C(=O)N[C@@H](CCC(=O)O)C(=O)NCC(=O)N[C@@H](CC(C)C)C(N)=O)C(C)C)C(C)C

These binders were tested against human GLP-1 receptor (human, UniProt P43220) (assay: cell-based or functional assay).

Point of comparison: B1, “CRE luciferase EC50, 0% HSA” value 0.489 nM. Against it:
- B2 — 8.3-fold lower, 0.059 nM
- B3 — 20-fold lower, 0.025 nM
- B4 — 1.9-fold higher, 0.921 nM
- B5 — 44-fold lower, 0.011 nM

Point of comparison: B5, “CRE luciferase EC50, 1% HSA” value 0.003 nM. Against it:
- B1 — 100-fold higher, 0.303 nM
- B2 — 9.7-fold higher, 0.029 nM
- B3 — 5.3-fold higher, 0.016 nM
- B4 — 92-fold higher, 0.276 nM
